B1: mAb2 of Table 4A, caninized anti-NGF antibody ZTS-841, canine IgGA, WT (antibody)
heavy: EVQLVESGGDLVKPGGSLRLSCVASGFTFSSHGMHWVRQSPGKGLQWVAVINSGGSSTYYTDAVKGRFTISRDNAKNTVYLQMNSLRAEDTAMYYCAKESVGGWEQLVGPHFDYWGQGTLVIVSSASTTAPSVFPLAPSCGSTSGSTVALACLVSGYFPEPVTVSWNSGSLTSGVHTFPSVLQSSGLHSLSSMVTVPSSRWPSETFTCNVVHPASNTKVDKPVFNECRCTDTPPCPVPEPLGGPSVLIFPPKPKDILRITRTPEVTCVVLDLGREDPEVQISWFVDGKEVHTAKTQSREQQFNGTYRVVSVLPIEHQDWLTGKEFKCRVNHIDLPSPIERTISKARGRAHKPSVYVLPPSPKELSSSDTVSITCLIKDFYPPDIDVEWQSNGQQEPERKHRMTPPQLDEDGSYFLYSKLSVDKSRWQQGDPFTCAVMHETLQNHYTDLSLSHSPGK
VL: QSVLTQPTSVSGSLGQRVTISCSGSTNNIGILGASWYQLFPGKAPKLLVYGNGNRPSGVPDRFSGADSGDSVTLTITGLQAEDEADYYCQSFDTTLGAHVFGGGTHLTVL
notes: also called ID No. 39
B2: mAb2 of Table 4A, caninized anti-NGF antibody ZTS-841, canine IgGA, N434F (antibody)
heavy: EVQLVESGGDLVKPGGSLRLSCVASGFTFSSHGMHWVRQSPGKGLQWVAVINSGGSSTYYTDAVKGRFTISRDNAKNTVYLQMNSLRAEDTAMYYCAKESVGGWEQLVGPHFDYWGQGTLVIVSSASTTAPSVFPLAPSCGSTSGSTVALACLVSGYFPEPVTVSWNSGSLTSGVHTFPSVLQSSGLHSLSSMVTVPSSRWPSETFTCNVVHPASNTKVDKPVFNECRCTDTPPCPVPEPLGGPSVLIFPPKPKDILRITRTPEVTCVVLDLGREDPEVQISWFVDGKEVHTAKTQSREQQFNGTYRVVSVLPIEHQDWLTGKEFKCRVNHIDLPSPIERTISKARGRAHKPSVYVLPPSPKELSSSDTVSITCLIKDFYPPDIDVEWQSNGQQEPERKHRMTPPQLDEDGSYFLYSKLSVDKSRWQQGDPFTCAVMHETLQFHYTDLSLSHSPGK
VL: QSVLTQPTSVSGSLGQRVTISCSGSTNNIGILGASWYQLFPGKAPKLLVYGNGNRPSGVPDRFSGADSGDSVTLTITGLQAEDEADYYCQSFDTTLGAHVFGGGTHLTVL
notes: also called ID No. 40
B3: mAb2 of Table 4A, caninized anti-NGF antibody ZTS-841, canine IgGA, N434H (antibody)
heavy: EVQLVESGGDLVKPGGSLRLSCVASGFTFSSHGMHWVRQSPGKGLQWVAVINSGGSSTYYTDAVKGRFTISRDNAKNTVYLQMNSLRAEDTAMYYCAKESVGGWEQLVGPHFDYWGQGTLVIVSSASTTAPSVFPLAPSCGSTSGSTVALACLVSGYFPEPVTVSWNSGSLTSGVHTFPSVLQSSGLHSLSSMVTVPSSRWPSETFTCNVVHPASNTKVDKPVFNECRCTDTPPCPVPEPLGGPSVLIFPPKPKDILRITRTPEVTCVVLDLGREDPEVQISWFVDGKEVHTAKTQSREQQFNGTYRVVSVLPIEHQDWLTGKEFKCRVNHIDLPSPIERTISKARGRAHKPSVYVLPPSPKELSSSDTVSITCLIKDFYPPDIDVEWQSNGQQEPERKHRMTPPQLDEDGSYFLYSKLSVDKSRWQQGDPFTCAVMHETLQHHYTDLSLSHSPGK
VL: QSVLTQPTSVSGSLGQRVTISCSGSTNNIGILGASWYQLFPGKAPKLLVYGNGNRPSGVPDRFSGADSGDSVTLTITGLQAEDEADYYCQSFDTTLGAHVFGGGTHLTVL
notes: also called ID No. 41
B4: mAb2 of Table 4A, caninized anti-NGF antibody ZTS-841, canine IgGA, N434S (antibody)
heavy: EVQLVESGGDLVKPGGSLRLSCVASGFTFSSHGMHWVRQSPGKGLQWVAVINSGGSSTYYTDAVKGRFTISRDNAKNTVYLQMNSLRAEDTAMYYCAKESVGGWEQLVGPHFDYWGQGTLVIVSSASTTAPSVFPLAPSCGSTSGSTVALACLVSGYFPEPVTVSWNSGSLTSGVHTFPSVLQSSGLHSLSSMVTVPSSRWPSETFTCNVVHPASNTKVDKPVFNECRCTDTPPCPVPEPLGGPSVLIFPPKPKDILRITRTPEVTCVVLDLGREDPEVQISWFVDGKEVHTAKTQSREQQFNGTYRVVSVLPIEHQDWLTGKEFKCRVNHIDLPSPIERTISKARGRAHKPSVYVLPPSPKELSSSDTVSITCLIKDFYPPDIDVEWQSNGQQEPERKHRMTPPQLDEDGSYFLYSKLSVDKSRWQQGDPFTCAVMHETLQSHYTDLSLSHSPGK
VL: QSVLTQPTSVSGSLGQRVTISCSGSTNNIGILGASWYQLFPGKAPKLLVYGNGNRPSGVPDRFSGADSGDSVTLTITGLQAEDEADYYCQSFDTTLGAHVFGGGTHLTVL
notes: also called ID No. 43
B5: mAb2 of Table 4A, caninized anti-NGF antibody ZTS-841, canine IgGA, N434R (antibody)
heavy: EVQLVESGGDLVKPGGSLRLSCVASGFTFSSHGMHWVRQSPGKGLQWVAVINSGGSSTYYTDAVKGRFTISRDNAKNTVYLQMNSLRAEDTAMYYCAKESVGGWEQLVGPHFDYWGQGTLVIVSSASTTAPSVFPLAPSCGSTSGSTVALACLVSGYFPEPVTVSWNSGSLTSGVHTFPSVLQSSGLHSLSSMVTVPSSRWPSETFTCNVVHPASNTKVDKPVFNECRCTDTPPCPVPEPLGGPSVLIFPPKPKDILRITRTPEVTCVVLDLGREDPEVQISWFVDGKEVHTAKTQSREQQFNGTYRVVSVLPIEHQDWLTGKEFKCRVNHIDLPSPIERTISKARGRAHKPSVYVLPPSPKELSSSDTVSITCLIKDFYPPDIDVEWQSNGQQEPERKHRMTPPQLDEDGSYFLYSKLSVDKSRWQQGDPFTCAVMHETLQRHYTDLSLSHSPGK
VL: QSVLTQPTSVSGSLGQRVTISCSGSTNNIGILGASWYQLFPGKAPKLLVYGNGNRPSGVPDRFSGADSGDSVTLTITGLQAEDEADYYCQSFDTTLGAHVFGGGTHLTVL
notes: also called ID No. 42
B6: mAb1, caninized anti-IL31 antibody 34D03, canine IgGA, WT (antibody)
heavy: EVQLVESGGDLVKPGGSLRLSCVASGFTFSNYGMSWVRQAPGKGLQWVATISYGGSYTYYPDNIKGRFTISRDNAKNTLYLQMNSLRAEDTAMYYCVRGYGYDTMDYWGQGTLVTVSSASTTAPSVFPLAPSCGSTSGSTVALACLVSGYFPEPVTVSWNSGSLTSGVHTFPSVLQSSGLHSLSSMVTVPSSRWPSETFTCNVVHPASNTKVDKPVFNECRCTDTPPCPVPEPLGGPSVLIFPPKPKDILRITRTPEVTCVVLDLGREDPEVQISWFVDGKEVHTAKTQSREQQFNGTYRVVSVLPIEHQDWLTGKEFKCRVNHIDLPSPIERTISKARGRAHKPSVYVLPPSPKELSSSDTVSITCLIKDFYPPDIDVEWQSNGQQEPERKHRMTPPQLDEDGSYFLYSKLSVDKSRWQQGDPFTCAVMHETLQNHYTDLSLSHSPGK
VL: EIVMTQSPASLSLSQEEKVTITCKASQSVSFAGTGLMHWYQQKPGQAPKLLIYRASNLEAGVPSRFSGSGSGTDFSFTISSLEPEDVAVYYCQQSREYPWTFGQGTKLEIK
notes: VH/VL: the caninized 34D03 entries of the listing; also called ID No. 1
B7: mAb1, caninized anti-IL31 antibody 34D03, canine IgGA, N434H (antibody)
chain 1: EVQLVESGGDLVKPGGSLRLSCVASGFTFSNYGMSWVRQAPGKGLQWVATISYGGSYTYYPDNIKGRFTISRDNAKNTLYLQMNSLRAEDTAMYYCVRGYGYDTMDYWGQGTLVTVSSASTTAPSVFPLAPSCGSTSGSTVALACLVSGYFPEPVTVSWNSGSLTSGVHTFPSVLQSSGLHSLSSMVTVPSSRWPSETFTCNVVHPASNTKVDKPVFNECRCTDTPPCPVPEPLGGPSVLIFPPKPKDILRITRTPEVTCVVLDLGREDPEVQISWFVDGKEVHTAKTQSREQQFNGTYRVVSVLPIEHQDWLTGKEFKCRVNHIDLPSPIERTISKARGRAHKPSVYVLPPSPKELSSSDTVSITCLIKDFYPPDIDVEWQSNGQQEPERKHRMTPPQLDEDGSYFLYSKLSVDKSRWQQGDPFTCAVMHETLQHHYTDLSLSHSPGK
chain 2: EIVMTQSPASLSLSQEEKVTITCKASQSVSFAGTGLMHWYQQKPGQAPKLLIYRASNLEAGVPSRFSGSGSGTDFSFTISSLEPEDVAVYYCQQSREYPWTFGQGTKLEIKRNDAQPAVYLFQPSPDQLHTGSASVVCLLNSFYPKDINVKWKVDGVIQDTGIQESVTEQDKDSTYSLSSTLTMSSTEYLSHELYSCEITHKSLPSTLIKSFQRSEC
B8: mAb1, caninized anti-IL31 antibody 34D03, canine IgGA, N434R (antibody)
chain 1: EVQLVESGGDLVKPGGSLRLSCVASGFTFSNYGMSWVRQAPGKGLQWVATISYGGSYTYYPDNIKGRFTISRDNAKNTLYLQMNSLRAEDTAMYYCVRGYGYDTMDYWGQGTLVTVSSASTTAPSVFPLAPSCGSTSGSTVALACLVSGYFPEPVTVSWNSGSLTSGVHTFPSVLQSSGLHSLSSMVTVPSSRWPSETFTCNVVHPASNTKVDKPVFNECRCTDTPPCPVPEPLGGPSVLIFPPKPKDILRITRTPEVTCVVLDLGREDPEVQISWFVDGKEVHTAKTQSREQQFNGTYRVVSVLPIEHQDWLTGKEFKCRVNHIDLPSPIERTISKARGRAHKPSVYVLPPSPKELSSSDTVSITCLIKDFYPPDIDVEWQSNGQQEPERKHRMTPPQLDEDGSYFLYSKLSVDKSRWQQGDPFTCAVMHETLQRHYTDLSLSHSPGK
chain 2: EIVMTQSPASLSLSQEEKVTITCKASQSVSFAGTGLMHWYQQKPGQAPKLLIYRASNLEAGVPSRFSGSGSGTDFSFTISSLEPEDVAVYYCQQSREYPWTFGQGTKLEIKRNDAQPAVYLFQPSPDQLHTGSASVVCLLNSFYPKDINVKWKVDGVIQDTGIQESVTEQDKDSTYSLSSTLTMSSTEYLSHELYSCEITHKSLPSTLIKSFQRSEC
B9: mAb1, caninized anti-IL31 antibody 34D03, canine IgGA, N434F (antibody)
chain 1: EVQLVESGGDLVKPGGSLRLSCVASGFTFSNYGMSWVRQAPGKGLQWVATISYGGSYTYYPDNIKGRFTISRDNAKNTLYLQMNSLRAEDTAMYYCVRGYGYDTMDYWGQGTLVTVSSASTTAPSVFPLAPSCGSTSGSTVALACLVSGYFPEPVTVSWNSGSLTSGVHTFPSVLQSSGLHSLSSMVTVPSSRWPSETFTCNVVHPASNTKVDKPVFNECRCTDTPPCPVPEPLGGPSVLIFPPKPKDILRITRTPEVTCVVLDLGREDPEVQISWFVDGKEVHTAKTQSREQQFNGTYRVVSVLPIEHQDWLTGKEFKCRVNHIDLPSPIERTISKARGRAHKPSVYVLPPSPKELSSSDTVSITCLIKDFYPPDIDVEWQSNGQQEPERKHRMTPPQLDEDGSYFLYSKLSVDKSRWQQGDPFTCAVMHETLQFHYTDLSLSHSPGK
chain 2: EIVMTQSPASLSLSQEEKVTITCKASQSVSFAGTGLMHWYQQKPGQAPKLLIYRASNLEAGVPSRFSGSGSGTDFSFTISSLEPEDVAVYYCQQSREYPWTFGQGTKLEIKRNDAQPAVYLFQPSPDQLHTGSASVVCLLNSFYPKDINVKWKVDGVIQDTGIQESVTEQDKDSTYSLSSTLTMSSTEYLSHELYSCEITHKSLPSTLIKSFQRSEC

The target in the test is canine FcRn complex (FcRn-α subunit and β-microglobulin) (canine, UniProt A0A8I3PFR8 25-347, biotin on the BAP tag by BirA (Example 5 only)). The experiment in a line: SPR (Biacore), biotinylated FcRn on SA chip, IgG flowed, pH 6, 15 C.
Sequence of canine FcRn complex (FcRn-α subunit and β-microglobulin) (A0A8I3PFR8 entry or part of it, one chain of several): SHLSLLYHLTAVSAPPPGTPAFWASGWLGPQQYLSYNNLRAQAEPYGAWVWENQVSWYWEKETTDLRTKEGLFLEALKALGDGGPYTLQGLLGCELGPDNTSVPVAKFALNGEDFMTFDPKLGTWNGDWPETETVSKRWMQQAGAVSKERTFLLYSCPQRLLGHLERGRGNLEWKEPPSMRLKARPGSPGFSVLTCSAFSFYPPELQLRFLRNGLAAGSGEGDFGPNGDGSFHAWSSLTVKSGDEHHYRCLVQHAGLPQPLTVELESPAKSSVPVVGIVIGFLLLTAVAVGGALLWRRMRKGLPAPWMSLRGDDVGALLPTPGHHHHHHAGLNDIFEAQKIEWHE
What is called Kd is the concentration at which binding is half-saturated. A higher Kd goes with weaker binding. As for B1, the Kd worked out at 95.5 nM. This counts as double-digit nanomolar.

Regarding B2, the Kd stood at 9.81 nM.

Molecule B3 returned a Kd of 10.4 nM. This Kd and that of the molecule before are within 1.5-fold of each other.

The molecule B4 had a Kd of 147 nM. Against the preceding molecule, the Kd is about 14-fold higher.

B5 showed a Kd of 15.1 nM.

Molecule B6 returned a Kd of 79.9 nM.

B7 gave a Kd of 12.3 nM.

Molecule B8 came in with a Kd of 43.8 nM.

Molecule B9 showed a Kd of 12.7 nM.
